Test results published in the supplement of paper PMC9112550, “Optimization of the antimicrobial peptide Bac7 by deep mutational scanning” (BMC Biology, 2022).

Tested on: Escherichia coli TOP10
Experiment: shrunken log2 fold change of peptide-encoding DNA abundance (4.5 h post-induction vs induction); higher = less antimicrobial activity (less host growth inhibition)
Details: time post-induction: 4.5 h; library: site-saturation at positions 5, 18, 19, 20
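Note: peptides expressed intracellularly from a pBAD plasmid library in pooled LB shake-flask culture, induced with 0.3% L-arabinose, DNA abundance read by NGS, three biological replicates, DESeq2 with apeglm shrinkage.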

Sequence	shrunken log2 fold change
RRIRKRPPRLPRPRPRPNCVPRP	0.109
RRIRQRPPRLPRPRPRPRLGPRP	0.272
RRIRMRPPRLPRPRPRPLSVPRP	0.401
RRIRHRPPRLPRPRPRPLAYPRP	-0.351
RRIRHRPPRLPRPRPRPQWQPRP	-0.0687
RRIRNRPPRLPRPRPRPCYVPRP	-0.0102
RRIRMRPPRLPRPRPRPDDEPRP	0.123
RRIRDRPPRLPRPRPRPPYQPRP	0.251
RRIRTRPPRLPRPRPRPPNRPRP	0.135
RRIRARPPRLPRPRPRPFSQPRP	-0.0436
RRIRKRPPRLPRPRPRPCTPPRP	0.192
RRIRSRPPRLPRPRPRPDMMPRP	-0.36
RRIRFRPPRLPRPRPRPIQMPRP	-0.0945
RRIRERPPRLPRPRPRPEDHPRP	-0.111
RRIRSRPPRLPRPRPRPAAKPRP	0.155
RRIRDRPPRLPRPRPRPGEFPRP	-0.117
RRIRGRPPRLPRPRPRPNANPRP	0.837
RRIRGRPPRLPRPRPRPAYVPRP	-0.0723
RRIRVRPPRLPRPRPRPAFLPRP	0.0548
RRIRARPPRLPRPRPRPDIKPRP	-0.026
RRIRTRPPRLPRPRPRPPVNPRP	0.0698
RRIRYRPPRLPRPRPRPRFSPRP	-0.144
RRIRNRPPRLPRPRPRPFMQPRP	-0.194
RRIRKRPPRLPRPRPRPQKYPRP	-0.184
RRIRMRPPRLPRPRPRPNFQPRP	-0.0246

Sequence	shrunken log2 fold change
RRIRSRPPRLPRPRPRPSFKPRP	-0.542
RRIRKRPPRLPRPRPRPAIYPRP	-0.109
RRIRMRPPRLPRPRPRPIYYPRP	-0.51
RRIRTRPPRLPRPRPRPQNFPRP	-0.18
RRIRFRPPRLPRPRPRPTIWPRP	-0.000248
RRIRIRPPRLPRPRPRPMTAPRP	-0.2
RRIRHRPPRLPRPRPRPQDSPRP	-0.00865
RRIRYRPPRLPRPRPRPIETPRP	-0.0177
RRIRWRPPRLPRPRPRPSLDPRP	-0.00135
RRIRERPPRLPRPRPRPKVHPRP	-0.196
RRIRPRPPRLPRPRPRPVPQPRP	0.446
RRIRTRPPRLPRPRPRPQLHPRP	0.0211
RRIRTRPPRLPRPRPRPIWCPRP	-0.0116
RRIRQRPPRLPRPRPRPNALPRP	0.023
RRIRDRPPRLPRPRPRPCIHPRP	-0.233
RRIRYRPPRLPRPRPRPVHQPRP	-0.0229
RRIRMRPPRLPRPRPRPPCLPRP	-0.157
RRIRMRPPRLPRPRPRPTRTPRP	2.22
RRIRTRPPRLPRPRPRPFHLPRP	-0.0758
RRIRTRPPRLPRPRPRPFTGPRP	-0.12
RRIRVRPPRLPRPRPRPRVVPRP	0.2
RRIRDRPPRLPRPRPRPSYCPRP	-0.046
RRIRQRPPRLPRPRPRPPWMPRP	0.172
RRIRFRPPRLPRPRPRPTHMPRP	0.0264
RRIRKRPPRLPRPRPRPTHGPRP	0.547

Sequence	shrunken log2 fold change
RRIRHRPPRLPRPRPRPLLNPRP	-0.443
RRIRDRPPRLPRPRPRPSTWPRP	-0.0672
RRIRKRPPRLPRPRPRPFFEPRP	0.428
RRIRFRPPRLPRPRPRPDEMPRP	-0.0134
RRIRQRPPRLPRPRPRPITVPRP	-0.143
RRIRTRPPRLPRPRPRPYVAPRP	-0.562
RRIRKRPPRLPRPRPRPTKCPRP	-0.184
RRIRKRPPRLPRPRPRPPIWPRP	0.106
RRIRLRPPRLPRPRPRPPRVPRP	0.536
RRIRGRPPRLPRPRPRPSPGPRP	0.732
RRIRVRPPRLPRPRPRPPHPPRP	0.261
RRIRVRPPRLPRPRPRPTCKPRP	-0.0395
RRIRMRPPRLPRPRPRPFVDPRP	-0.338
RRIRSRPPRLPRPRPRPKKAPRP	0.0943
RRIRERPPRLPRPRPRPMVRPRP	-0.019
RRIRIRPPRLPRPRPRPNGLPRP	0.0383
RRIRKRPPRLPRPRPRPIMPPRP	0.099
RRIRIRPPRLPRPRPRPCGCPRP	-0.248
RRIRRRPPRLPRPRPRPWIHPRP	-0.147
RRIRGRPPRLPRPRPRPNLQPRP	0.347
RRIRYRPPRLPRPRPRPYTHPRP	-0.508
RRIRERPPRLPRPRPRPRSTPRP	-0.259
RRIRNRPPRLPRPRPRPDTLPRP	-0.0286
RRIRYRPPRLPRPRPRPFHAPRP	0.207
RRIRCRPPRLPRPRPRPCGRPRP	-0.184

Sequence	shrunken log2 fold change
RRIRSRPPRLPRPRPRPNVRPRP	-0.0771
RRIRWRPPRLPRPRPRPLTSPRP	-0.101
RRIRKRPPRLPRPRPRPMCRPRP	0.625
RRIRCRPPRLPRPRPRPGQVPRP	0.0846
RRIRQRPPRLPRPRPRPIGLPRP	-0.00141
RRIRDRPPRLPRPRPRPQAVPRP	0.164
RRIRLRPPRLPRPRPRPHVTPRP	-0.198
RRIRDRPPRLPRPRPRPMEEPRP	-0.00277
RRIRYRPPRLPRPRPRPGVGPRP	-0.103
RRIRKRPPRLPRPRPRPVPFPRP	-0.101
RRIRARPPRLPRPRPRPDVNPRP	0.0462
RRIRMRPPRLPRPRPRPNYCPRP	-0.0723
RRIRNRPPRLPRPRPRPEFWPRP	0.0698
RRIRLRPPRLPRPRPRPEKMPRP	-0.35
RRIRTRPPRLPRPRPRPPCRPRP	0.121
RRIRERPPRLPRPRPRPIHQPRP	-1.22
RRIRNRPPRLPRPRPRPAILPRP	-0.101
RRIRQRPPRLPRPRPRPPMVPRP	-0.0885
RRIRKRPPRLPRPRPRPDRKPRP	0.413
RRIRSRPPRLPRPRPRPSRRPRP	0.208
RRIRIRPPRLPRPRPRPPRCPRP	0.0758
RRIRARPPRLPRPRPRPYQRPRP	-0.229
RRIRYRPPRLPRPRPRPVWQPRP	-0.288
RRIRSRPPRLPRPRPRPKWIPRP	-0.553
RRIRRRPPRLPRPRPRPEYWPRP	0.0322

Sequence	shrunken log2 fold change
RRIRPRPPRLPRPRPRPKYLPRP	-0.0768
RRIRPRPPRLPRPRPRPKMSPRP	-0.0151
RRIRDRPPRLPRPRPRPVHVPRP	0.0158
RRIRNRPPRLPRPRPRPDMYPRP	-0.00473
RRIRHRPPRLPRPRPRPTCPPRP	0.0464
RRIRCRPPRLPRPRPRPIHVPRP	-0.377
RRIRSRPPRLPRPRPRPDRLPRP	-0.168
RRIRTRPPRLPRPRPRPTSIPRP	-0.195
RRIRMRPPRLPRPRPRPVQWPRP	0.155
RRIRCRPPRLPRPRPRPGDSPRP	-0.0113
RRIRPRPPRLPRPRPRPSEFPRP	-0.0966
RRIRLRPPRLPRPRPRPEHTPRP	0.0956
RRIRYRPPRLPRPRPRPWINPRP	-0.803
RRIRTRPPRLPRPRPRPAIHPRP	-0.384
RRIRSRPPRLPRPRPRPDFLPRP	-0.0689
RRIRVRPPRLPRPRPRPIYIPRP	-0.755
RRIRKRPPRLPRPRPRPAFTPRP	0.021
RRIRYRPPRLPRPRPRPTFYPRP	-0.803
RRIRNRPPRLPRPRPRPVSKPRP	0.124
RRIRNRPPRLPRPRPRPEATPRP	0.556
RRIRVRPPRLPRPRPRPQMYPRP	-0.436
RRIRCRPPRLPRPRPRPHNIPRP	-0.898
RRIRMRPPRLPRPRPRPAMKPRP	-0.00492
RRIRPRPPRLPRPRPRPTNPPRP	0.174
RRIRARPPRLPRPRPRPQWAPRP	0.156
